Laboratory results as given in paper PMC5444859.

Tests used:
CASV L-Cterm = CASV L-Cterm (California Academy of Sciences virus …, UniProt J7HBG8 1721-2046); assay: EMSA; 5 mM MgCl2; 5 pmol protein, 0.4 pmol RNA; settings: protein: recombinant; tags: N-terminal His-tag (pOPINF), removed by 3C protease; chain copies: 2; label: 32P in cap (alpha-32P-GTP); single strand
CASV L-Cterm domain 2 = CASV L-Cterm domain 2 (California Academy of Sciences virus …, UniProt J7HBG8 1794-1894); assay: EMSA; 5 mM MgCl2; 5 pmol protein, 0.4 pmol RNA; settings: protein: recombinant; tags: N-terminal His-tag, removed by 3C protease; chain copies: 2; label: 32P in cap (alpha-32P-GTP); single strand

AAAAAAAAAAAAAAAAAAAAAAAAAAAAAAAAAAAAAAAA (ssRNA, 5' cap added with capping enzymes (Cellscript)) [capped polyA 40mer RNA]
binding result (CASV L-Cterm): no binding
binding result (CASV L-Cterm domain 2): no binding
